In PMC4352707:

Biological target: Cry1 (UniProt P97784)
Assay: co-IP, immunoblot
Settings: reference: wild-type Hausp; sites S18

## Hausp (Usp7), Hausp-V5 (from UniProt Q93009) Hausp S18A
  binding against the reference: stronger
